# Tested on: Bacillus subtilis
# Experiment: cleaved RNA product abundance (RNA/gDNA barcode ratio) relative to median wild-type variant (ratio to wild type); higher = more accumulation of the downstream cleavage product
# Outline: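 Oligos with a 9% error rate were used to build barcoded, mutagenized RNase Y cleavage-site windows within truncated aprE or tetM reporter mRNAs, which were integrated into the B. subtilis chromosome. Cultures were grown in LB at 37°C between OD600 0.0003 and 0.3. Cleaved RNA was gel-selected, reverse transcribed and barcode-sequenced, as were genomic DNA barcodes, and UMIs were collapsed. Cleaved product abundance is the scaled RNA:gDNA barcode ratio, with the median construct carrying the unmutated site as reference.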
# [1] = experiment (reporter, strain, medium): exp 4a: truncated aprE reporter, strain BJT201 with 2% xylose (RNase J1 expressed), cleavage site: cggR-gapA (positions -7 to +36 mutated)
# [2] = experiment (reporter, strain, medium): exp 8a: truncated aprE reporter, strain BJT201 with 2% xylose (RNase J1 expressed), cleavage site: glnRA (positions -5 to +31 mutated)
# [3] = experiment (reporter, strain, medium): exp 2b: truncated aprE reporter, strain BJT200, cleavage site: cggR-gapA (positions -7 to +36 mutated)
Sequence,cleaved RNA product abundance [1],cleaved RNA product abundance [2],cleaved RNA product abundance [3]
ACAGACGAAGGAGCCGCAAAGAAGTTATTAAGGGATGATTAATCCCTCAATATCAATATCTCTCACTTATTTAAA,0.0525,,
ACAGACGAAGGAGCCGCAAAGAAGGTATTAAGGGATGAATAATCCCTCAATATAACTATCTCTCACTTATTTAAA,0.73,,
CGACATGTCCCGCTTCTTTCATTAATCCATTATCAACTGTTTTGCTATATACATTTACCTTTTAAGAGGAGGAAT,,0.224,
ACAGACGAAGGAGCCGCATAGAAGTTATTAAGGGATGAATAATCCCTCAACATAAATATCTCTCACTTATTTAAA,0.317,,
CGACATGTCCCGCTTCTTTCATTAATCCGTTAGCCACTGTTTTGCTATATACATTTACCTTTTAAGAGGAGGAAT,,0.478,
ACAGACGAAGGAGCCGCAAAGAAGTTATTAAGAGATGAATAATCCGTCAATATAAATATCTCTCACTTATTTAAA,0.0917,,0.0978
CGACATGTCCCGCTTCTTTCATTAATCCGTTAGCATCTGTTTTGCTATATACCTTTACCTTTTAAGAGGAGGAAT,,0.152,
ACAGACGAAGGAGCCGCAAAGAAGTTATTAAGGCATGAATAATCCGTCAATATAAATATCTCTCACTTATTTAAA,0.0753,,
ACAGACGAAGGAGCCGCAAAGAAGTTATTTAGGGATGAAGAATCCCTCAATATAAATATCTCTCACTTATTTAAA,0.607,,
CGACATGTCCCGCTTCTTTCATTAATCCGTTTGCAACTGTTTTGATATATACATTTACCTTTTAAGAGGAGGAAT,,0.421,
ACAGACGAAGGAGCCGCAAAGAAGTTATTAACGGATGAATAATCCCACAATATAAATATCTCTCACTTATTTAAA,0.133,,
ACAGACGAAGGAGCCGCAAAGAAATTATTAAGGGCTGAATAATCCCTCAATATAAATATCTCTCACTTATTTAAA,0.498,,
CGACATGTCCCGCTTCTTTCATTAATCCGTTAGCAACTGTTTTGTGATATACATTTACCTTTTAAGAGGAGGAAT,,0.344,
ACAGACGAAGGAGCCGCAAAGATGTTATCAAGGGATGAATAATCCCTCAATATAAATATCTCTCACTTATTTAAA,0.328,,0.239
ACAGACGAAGGAGCCGCAAAGATGTTATTAAGGGATGAATATTCCCTCAATATAAATATCTCTCACTTATTTAAA,0.556,,0.623
ACAGACGAAGGAGCCGCAAAGAAGTTATTAAGGGATAAATAATCCCTCAAAATAAATATCTCTCACTTATTTAAA,0.241,,0.293
CGACATGTCCCGCTTCTTTCATTAATCCGTTACCAACTGTTTTGCTATTTACATTTACCTTTTAAGAGGAGGAAT,,0.118,
ACAGACGAAGGAGCCGCAAAGAAGTTTTTAAGTGATGAATAATCCCTCAATATAAATATCTCTCACTTATTTAAA,0.0945,,0.117
ACAGACGAAGGAGCCGCAAAGAAATTATTCAGGGATGAATAATCCCTCAATATAAATATCTCTCACTTATTTAAA,0.747,,0.575
ACAGACGAAGGAGCCGCAAACAAGTTATTAATGGATGAATAATCCCTCAATATAAATATCTCTCACTTATTTAAA,0.112,,0.0836
ACAGACGAAGGAGCCGCAAAGGAGTTATTAAGGGATAAATAATCCCTCAATATAAATATCTCTCACTTATTTAAA,0.789,,0.828

Sequence,cleaved RNA product abundance [1],cleaved RNA product abundance [2],cleaved RNA product abundance [3]
CGACATGTCCCGCTTCTTTCATTAATCCGTTAGCAACTGTTTAGCTATATACATTTACTTTTTAAGAGGAGGAAT,,0.591,
ACAGACGAAGGAGCCGCAAAGAAGTTACTATGGGATGAATAATCCCTCAATATAAATATCTCTCACTTATTTAAA,0.228,,
ACAGACGAAGGAGCCGCAAAGCAGTTATTAAGGGATGAATAACCCCTCAATATAAATATCTCTCACTTATTTAAA,0.275,,
ACAGACGAAGGAGCCGCAAAGAAGTTATTAAGGGATCAATAATCCCTCAACATAAATATCTCTCACTTATTTAAA,0.258,,
CGACATGTCCCGCTTCTTTCATTAATCGCTTAGCAACTGTTTTGCTATATACATTTACCTTTTAAGAGGAGGAAT,,0.335,
CGACATGTCCCGCTTCTTTCATTAATCCGATAGCAACTGTTTTGCTATATACATTTAACTTTTAAGAGGAGGAAT,,0.63,
CGACATGTCCCGCTTCTTTCATTATTCCGTTAGCAACTGTTTTGCTATATACATTGACCTTTTAAGAGGAGGAAT,,1.55,
ACAGACGAAGGAGCCGCAAAGAAGTTATTAAGGGATGAATAATCCCACAATATGAATATCTCTCACTTATTTAAA,0.0667,,0.107
CGACATGTCCCGCTTCTTTCATTAATCCGTTAGCAAGTGTTTTGCTATATACATCTACCTTTTAAGAGGAGGAAT,,0.494,
ACAGACGAAGGAGCCGCAAAGAAGTTATTAAGGGATGAATGATCCCTCCATATAAATATCTCTCACTTATTTAAA,,,0.123
ACAGACGAAGGAGCCGCAAAGAAGTTATTAAGGGATGAATAATACCTCAATATAAATTTCTCTCACTTATTTAAA,0.15,,
CGACATGTCCCGCTTCTTTCATTAATCCGTTAGCAACTTTTTTGCTATATATATTTACCTTTTAAGAGGAGGAAT,,0.911,
CGACATGTCCCGCTTCTTTCATTATTCCGTTAGCAACTGTTTTGCTATATACAGTTACCTTTTAAGAGGAGGAAT,,0.649,
ACAGACGAAGGAGCCGCAAAGAAGTTATTAAGGGATGAATACTCCCTCTATATAAATATCTCTCACTTATTTAAA,0.259,,0.275
CGACATGTCCCGCTTCTTTCATTAATCCGTTAGCAAATGTTTTGCTATAAACATTTACCTTTTAAGAGGAGGAAT,,0.584,
ACAGACGAAGGAGCCGCAAAGAAGTTATTAGGGGATGAATAATCCCTTAATATAAATATCTCTCACTTATTTAAA,0.808,,
CGACATGTCCCGCTTCTTTCATTATTCCGTTAGCAACTGTATTGCTATATACATTTACCTTTTAAGAGGAGGAAT,,1.36,
ACAGACGAAGGAGCCGCAAAGAAGATATTAAGGGATTAATAATCCCTCAATATAAATATCTCTCACTTATTTAAA,0.608,,
CGACATGTCCCGCTTCTTTCATTAATCCGTTAGCAACTGTTTGGCTATATACATTTACGTTTTAAGAGGAGGAAT,,0.403,
CGACATGTCCCGCTTCTTTCATTAATTCGTTAGCAACTGTTTTGCTATTTACATTTACCTTTTAAGAGGAGGAAT,,0.134,
ACAGACGAAGGAGCCGCAAATAAGTTATTAAGGGATGAATAATACCTCAATATAAATATCTCTCACTTATTTAAA,0.165,,0.112

Sequence,cleaved RNA product abundance [1],cleaved RNA product abundance [2],cleaved RNA product abundance [3]
ACAGACGAAGGAGCCGCAAAGAAGTTCTTAAGGGATTAATAATCCCTCAATATAAATATCTCTCACTTATTTAAA,0.301,,
ACAGACGAAGGAGCCGCAAAGAAATTATTAAGAGATGAATAATCCCTCTATATAAATATCTCTCACTTATTTAAA,0.117,,
CGACATGTCCCGCTTCTTTCATTAATACGTTATCAACTGTTTTGCTATATACATTTACCTTTTAAGAGGAGGAAT,,0.281,
ACAGACGAAGGAGCCGCAAAGAAGTTTTTAAGGGATGAATAATCCCTAAATATAAATATCTCTCACTTATTTAAA,,,0.364
ACAGACGAAGGAGCCGCAAAGAAGTTAATAAGGGATGAATAATCCCTCAACATAAATATCTCTCACTTATTTAAA,0.342,,
ACAGACGAAGGAGCCGCAAAGAAGTTATTAAGGTATGAATAAGCCCTCAATATAAATATCTCTCACTTATTTAAA,0.13,,
ACAGACGAAGGAGCCGCAAAGAAGTAATTAAGGGATGAATAATCCGTCAATATAAATATCTCTCACTTATTTAAA,0.179,,
ACAGACGAAGGAGCCGCAAAGAAGTTATTAAAGGATGAATAGTCCCTCAATATAAATATCTCTCACTTATTTAAA,,,0.124
ACAGACGAAGGAGCCGCAAATAAGTTATTAATGAATGAATAATCCCTCAATATAAATATCTCTCACTTATTTAAA,0.107,,
CGACATGTCCCGCTTCTTTCATTAATCCGTTAGCAACTGTTTGGCTATATACATTTACCGTTTAAGAGGAGGAAT,,0.403,
CGACATGTCCCGCTTCTTTCATTAATCCTTTAGCAACTGTTTTCCTATATACATTTACCTTTTAAGAGGAGGAAT,,0.283,
CGACATGTCCCGCTTCTTTCATTAATCCGTTAGCAACTGTCTTGCTATATACATTTACCTTTTAAGAGGAGGAAT,,0.849,
ACAGACGAAGGAGCCGCAAAGAAGTTATGAAGGGATGAATAATCCTTCAATATAAATATCTCTCACTTATTTAAA,0.441,,
ACAGACGAAGGAGCCGCAAAGAGGTTATTAAGGGATGAATAATCCGTCAATATAAATATCTCTCACTTATTTAAA,0.296,,
CGACATGTCCCGCTTCTTTCATTAATCCGTAAGCAATTGTTTTGCTATATACATTTACCTTTTAAGAGGAGGAAT,,0.524,
ACAGACGAAGGAGCCGCAAAGAAGTTATTAAGGGATGAATAATCCCTCAATATAAAGATCTCTCACTTATTTAAA,0.627,,0.666
CGACATGTCCCGCTTCTTTCATTAATCCGTTAGCAACTGTTTTGATATATACATTTACCTTTTAAGAGGAGGAAT,,0.503,
CGACATGTCCCGCTTCTTTCATTAATCAGTTAACTTTTTTGCTATATATATTTACCTTTTAAGAGGAGGAATTTT,,0.238,
CGACATGTCCCGCTTCTTTCATTAATCCGTGAGCAACTGTTTTGCTATATACATTTACTTTTTAAGAGGAGGAAT,,0.477,
ACAGACGAAGGAGCCGCAAAGAAGTTATTAAGAGATGAATACTCCCTCAATATAAATATCTCTCACTTATTTAAA,0.0945,,

# — the supplement of paper PMC11780869
